From publication PMC5934295 (Neuron, 2018)

B1: mouse CALHM1-FLAG (natural protein, UniProt D3Z291 1-348, looked up)
chain: MDKFRMIFQFLQSNQESFMNGICGIMALASAQMYSAFDFNCPCLPGYNVVYSLGILLTPPLVLFLLGLVMNNNISMLAEEWKRPAGRRAKDPAVLRYMFCSMAQRALIAPVVWVAVTLLDGKCFLCAFCTAVPVATLGNGSLVPGLPAPELARLLARVPCPEIYDGNWLLAREVAVRYLRCISQALGWSFVLLTTLLAFVVRSVRPCFTQVAFLKSKYWSHYIDIERKLFDETCTEHAKAFAKVCIQQFFEAMNHDLELGHTHGVLATATATATATEAVQSPSDRTEEEREKLRGITDQGTMNRLLTSWHKCKPPLRLGQEAPLMSNGWAGGEPRPPRKEVATYFSKV
B2: mouse CALHM3-GFP (natural protein, UniProt J3QMI4 1-347, looked up)
chain: MDRFRMLFQHLQSSSESVMNGICLLLAAVTVKIYSSLDFNCPCLERYNALYGLGLLLTPPLALFLCGLLVNRQSVLMVEEWRRPAGHRRKDLGIIRYMCSSVLQRALAAPLVWILLALLDGKCFVCAFSNSVDPEKFLDFANMTPRQVQLFLAKVPCKEDELVKNSPARKAVSRYLRCLSQAIGWSITLLVIVVAFLARCLRPCFDQTVFLQRRYWSNYMDLEQKLFDETCCEHARDFAHRCVLHFFANMQSELRALGLRRDPAGGIPESQESSEPPELREDRDSGNGKAHLRAISSREQVDQLLSTWYSSKPPLDLAASPRRWGPGLNHRAPIAAPGTKLCHQLNV
B3: CALHM3-mCherry (natural protein, mouse, UniProt J3QMI4 1-347, looked up)
chain: B2 chain

How the values were obtained:
[1] = target: the molecule itself; assay: native gel or EMSA
[2] = target: B1; assay: native gel or EMSA
[3] = target: the molecule itself; assay: single-molecule photobleaching

Binder: B1
stoichiometry N [1]: ~6

Binder: B2
stoichiometry N [2]: ≥ 1 CALHM3 subunit per channel

Binder: B3
stoichiometry N [3]: 6
